Assay results reported in paper PMC7614608 (Nature, 2023).

Biological target: T1, 6x-His-3C-EIF4A3 (human, UniProt P38919 1-411)
T1 construct: EIF4A3, human, full length; source: E. coli BL21 DE3 RIL, purified (HisTrap, HiTrapQ, Superdex 75); not shown: His6, N-terminal, kept
Experiment: pull-down; MBP-tagged bait (ALYREF constructs or CASC3 SELOR) mixed overnight at 4 °C with EIF4A3, Y14(66-154)–MAGOH, ssRNA and AMP-PNP in 25 mM HEPES pH 7.9, 50 mM NaCl, 5 mM MgCl2; held on amylose resin, maltose elution, SDS-PAGE with Coomassie
Conditions: both partners purified

T1 sequence (P38919 whole entry): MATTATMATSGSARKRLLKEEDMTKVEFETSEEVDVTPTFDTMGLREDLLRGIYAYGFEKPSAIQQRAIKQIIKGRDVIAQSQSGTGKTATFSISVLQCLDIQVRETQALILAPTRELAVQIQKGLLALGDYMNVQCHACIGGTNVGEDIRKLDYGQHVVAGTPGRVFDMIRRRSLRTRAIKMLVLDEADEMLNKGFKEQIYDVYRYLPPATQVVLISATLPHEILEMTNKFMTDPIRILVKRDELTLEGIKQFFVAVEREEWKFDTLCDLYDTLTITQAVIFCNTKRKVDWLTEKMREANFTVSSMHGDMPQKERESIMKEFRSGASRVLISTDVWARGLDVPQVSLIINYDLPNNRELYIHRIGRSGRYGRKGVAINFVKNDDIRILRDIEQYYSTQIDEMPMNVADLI

binding result: binds
B1: 10x-His-MBP-3C-ALYREFN (ALYREF residues 1-182) (domain or fragment)
chain: not shown
notes: also called MBP-ALYREFN; source: E. coli BL21 DE3 RIL, purified (HisTrap, cation exchange, Superdex 75); not shown: His10, N-terminal, kept; MBP, N-terminal, kept
